Results reported in patent US20240325555A1.

Tests used:
[1] = target: T1, rat LIV-1 (rat) (UniProt Q4V887); assay: FACS, HEK293/Rat_LIV-1 cells
T1 sequence (looked up): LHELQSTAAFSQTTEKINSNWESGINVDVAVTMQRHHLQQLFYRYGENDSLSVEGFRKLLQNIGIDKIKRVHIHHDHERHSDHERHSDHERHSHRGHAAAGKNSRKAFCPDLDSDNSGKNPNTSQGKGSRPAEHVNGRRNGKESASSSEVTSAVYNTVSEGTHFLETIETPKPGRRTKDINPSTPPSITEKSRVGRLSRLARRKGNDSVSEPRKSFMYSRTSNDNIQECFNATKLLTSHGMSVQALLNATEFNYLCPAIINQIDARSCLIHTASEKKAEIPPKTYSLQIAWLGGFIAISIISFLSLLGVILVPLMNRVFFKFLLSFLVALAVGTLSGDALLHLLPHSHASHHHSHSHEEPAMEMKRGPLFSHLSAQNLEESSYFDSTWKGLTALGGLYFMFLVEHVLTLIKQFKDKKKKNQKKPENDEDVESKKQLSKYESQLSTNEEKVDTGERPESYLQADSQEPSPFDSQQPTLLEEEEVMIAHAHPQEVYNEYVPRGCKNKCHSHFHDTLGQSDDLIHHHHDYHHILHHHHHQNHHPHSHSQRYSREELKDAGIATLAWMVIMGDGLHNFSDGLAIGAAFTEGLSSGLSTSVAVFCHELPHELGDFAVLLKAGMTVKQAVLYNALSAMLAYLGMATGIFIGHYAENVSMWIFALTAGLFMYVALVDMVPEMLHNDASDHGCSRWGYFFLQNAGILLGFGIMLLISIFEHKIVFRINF

[2] = target: T2, mouse LIV-1 (mouse) (UniProt Q8C145); assay: FACS, HEK293/Mouse_LIV-1 cells
T2 sequence (looked up): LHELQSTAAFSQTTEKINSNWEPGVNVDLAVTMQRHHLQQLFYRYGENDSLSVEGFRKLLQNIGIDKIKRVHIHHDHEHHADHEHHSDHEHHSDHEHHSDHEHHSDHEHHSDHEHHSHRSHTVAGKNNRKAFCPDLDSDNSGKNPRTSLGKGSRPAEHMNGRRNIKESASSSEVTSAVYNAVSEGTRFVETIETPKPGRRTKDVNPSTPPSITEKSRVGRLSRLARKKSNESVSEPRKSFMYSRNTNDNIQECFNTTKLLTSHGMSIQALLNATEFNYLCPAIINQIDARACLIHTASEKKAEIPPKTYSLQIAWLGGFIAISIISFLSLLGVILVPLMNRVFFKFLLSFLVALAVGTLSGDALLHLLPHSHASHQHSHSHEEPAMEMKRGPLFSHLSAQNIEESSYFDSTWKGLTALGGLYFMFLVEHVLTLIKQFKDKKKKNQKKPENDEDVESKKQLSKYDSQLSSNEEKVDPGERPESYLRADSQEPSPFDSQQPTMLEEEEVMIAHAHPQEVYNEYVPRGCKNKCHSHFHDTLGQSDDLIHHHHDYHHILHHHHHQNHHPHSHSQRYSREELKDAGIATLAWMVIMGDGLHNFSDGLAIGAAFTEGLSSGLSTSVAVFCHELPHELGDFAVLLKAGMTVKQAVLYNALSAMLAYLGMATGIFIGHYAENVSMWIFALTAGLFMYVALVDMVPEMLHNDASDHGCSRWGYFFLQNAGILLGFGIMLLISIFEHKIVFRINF

- Top (MFI) [1]: 119 MFI
- Top (MFI) [2]: 114 MFI
Substance: hIgG1 Isotype (antibody)
